Target: the molecule itself
Assay: SEC-SAXS; Shodex KW-404 column in line with SAXS; 20 mM Tris-HCl, pH 7.5, 500 mM NaCl, 2% glycerol, 1 mM DTT; injected at 4, 6 and 8 mg/ml; ab initio envelopes (DAMMIF)

| Protein | stoichiometry N | binding result |
| --- | --- | --- |
| N-terminally His-tagged, full-length Bik1 (natural protein, S. cerevisiae, UniProt P11709 1-440, looked up, Bik1, S. cerevisiae, UniProt P11709, full length (domains described over residues 1-440); Vector PSPCm2: N-terminal 6xHis-tag followed by a PreScission cleavage site; also called Bik1 FL; FL; source: E. coli BL21-CodonPlus (DE3)-RIPL, purified (IMAC, SEC); not shown: His6, N-terminal, kept) MDRYQRKIGCFIQIPNLGRGQLKYVGPVDTKAGMFAGVDLLANIGKNDGSFMGKKYFQTEYPQSGLFIQLQKVASLIEKASISQTSRRTTMEPLSIPKNRSIVRLTNQFSPMDDPKSPTPMRSFRITSRHSGNQQSMDQEASDHHQQQEFGYDNREDRMEVDSILSSDRKANHNTTSDWKPDNGHMNDLNSSEVTIELREAQLTIEKLQRKQLHYKRLLDDQRMVLEEVQPTFDRYEATIQEREKEIDHLKQQLELERRQQAKQKQFFDAENEQLLAVVSQLHEEIKENEERNLSHNQPTGANEDVELLKKQLEQLRNIEDQFELHKTKWAKEREQLKMHNDSLSKEYQNLSKELFLTKPQDSSSEEVASLTKKLEEANEKIKQLEQAQAQTAVESLPIFDPPAPVDTTAGRQQWCEHCDTMGHNTAECPHHNPDNQQFF | 2 | – |
| Bik1 ΔQQFF (domain or fragment, S. cerevisiae, UniProt P11709 1-436, looked up, Bik1, S. cerevisiae, UniProt P11709, lacking the C-terminal EEY/F-like motif (peptide Gln-Gln-Phe-Phe); N-terminal 6xHis-tag followed by a PreScission site, tag retained; source: E. coli BL21-CodonPlus (DE3)-RIPL, purified (IMAC, SEC); not shown: His6, N-terminal, kept) MDRYQRKIGCFIQIPNLGRGQLKYVGPVDTKAGMFAGVDLLANIGKNDGSFMGKKYFQTEYPQSGLFIQLQKVASLIEKASISQTSRRTTMEPLSIPKNRSIVRLTNQFSPMDDPKSPTPMRSFRITSRHSGNQQSMDQEASDHHQQQEFGYDNREDRMEVDSILSSDRKANHNTTSDWKPDNGHMNDLNSSEVTIELREAQLTIEKLQRKQLHYKRLLDDQRMVLEEVQPTFDRYEATIQEREKEIDHLKQQLELERRQQAKQKQFFDAENEQLLAVVSQLHEEIKENEERNLSHNQPTGANEDVELLKKQLEQLRNIEDQFELHKTKWAKEREQLKMHNDSLSKEYQNLSKELFLTKPQDSSSEEVASLTKKLEEANEKIKQLEQAQAQTAVESLPIFDPPAPVDTTAGRQQWCEHCDTMGHNTAECPHHNPDN | – | binds |
